Literature values, collected in publication PMC3711752.

Biological target: EGF receptor (Homo sapiens) (UniProt P00533)

Chain of EGF (P01133 971-1023): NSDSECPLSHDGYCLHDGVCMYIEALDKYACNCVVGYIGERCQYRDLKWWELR

**Q.** For EGF (from UniProt P01133), which Kd is on record?
**A.** Its Kd is 3 nM.
